# Assay results taken from patent US20030082683A1.
# Target: hIK1 intermediate conductance, calcium-activated potassium channel (human) (UniProt O15554)
# Assay: cell-based or functional assay
# Sequence of iberiotoxin (P24663 whole entry): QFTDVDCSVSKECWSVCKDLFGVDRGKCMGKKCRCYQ
# Sequence of hIK1 intermediate conductance, calcium-activated potassium channel (human) (O15554 other isoform, or with tags, fused parts or gaps): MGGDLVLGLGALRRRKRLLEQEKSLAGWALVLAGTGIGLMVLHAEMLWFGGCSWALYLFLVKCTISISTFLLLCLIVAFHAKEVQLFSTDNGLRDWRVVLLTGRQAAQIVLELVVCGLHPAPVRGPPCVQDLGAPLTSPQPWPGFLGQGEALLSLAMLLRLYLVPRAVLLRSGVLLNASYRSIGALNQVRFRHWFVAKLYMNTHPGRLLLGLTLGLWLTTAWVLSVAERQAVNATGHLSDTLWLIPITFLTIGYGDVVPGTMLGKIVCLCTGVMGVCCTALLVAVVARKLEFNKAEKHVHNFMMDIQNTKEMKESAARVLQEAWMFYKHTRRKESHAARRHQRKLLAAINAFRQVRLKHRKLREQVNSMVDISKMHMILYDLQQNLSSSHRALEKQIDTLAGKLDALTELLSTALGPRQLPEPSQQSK
substance,measurement,value
iberiotoxin (from UniProt P24663 1-37) (peptide),percent block of hIK1 current at 50 nM IBX,15%
